Positions count from the first letter of the chain named.

In data set [1] the target is T1, ADAR1-dsRBD3 (dsRBD3-short) (Homo sapiens, UniProt P55265 716-797).
T1 sequence: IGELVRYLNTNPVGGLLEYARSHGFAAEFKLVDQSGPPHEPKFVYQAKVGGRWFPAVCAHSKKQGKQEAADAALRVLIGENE
Briefly: X-ray crystallography; 2.8 A; crystals from 50 mM Na cacodylate pH 6.0, 5% PEG 4000, 30 mM CaCl2, 230 mM KCl; ITC: 25 mM Na-phosphate pH 7.0, 100 mM NaCl, 2 mM 2-mercaptoethanol, 25 °C; 2.25 uM dsRNA in cell, 80 uM protein in syringe. The following applies: protein: recombinant; tags: His6 removed by TEV (residual residues remain); chain copies: 2; self-duplex of 2 copies, 11 bp, 3' overhang 2 nt (CG) on each strand; overhangs pair to form a continuous pseudo-A-form helix; 3 strands per asymmetric unit.

The target in data set [2] is T2, ADAR1-dsRBD3 interface mutant (monomeric) (Homo sapiens, UniProt P55265 708-801, V747A;D748Q;W768V;C773S).
T2 sequence: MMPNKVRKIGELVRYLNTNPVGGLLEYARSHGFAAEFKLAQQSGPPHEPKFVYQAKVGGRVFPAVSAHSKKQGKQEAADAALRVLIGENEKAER
The data set can be described thus: ITC; N = 3.60 ± 0.36; ITC: 25 mM Na-phosphate pH 7.0, 100 mM NaCl, 2 mM 2-mercaptoethanol, 25 °C; 2.25 uM dsRNA in cell, 80 uM protein in syringe. The conditions noted are these: protein: recombinant; tags: N-terminal His6 (uncleaved); blunt. (In general: ITC needs no label: the signal is the heat of the interaction.)

The target in data set [3] is T3, ADAR1-dsRBD3 wild-type (dsRBD3-mid) (Homo sapiens, UniProt P55265 708-801).
T3 sequence: T2 sequence with A40V, Q41D, V61W, S66C
Briefly: ITC; N = 4.15 ± 0.42; source data sheet gives 123 nM; ITC: 25 mM Na-phosphate pH 7.0, 100 mM NaCl, 2 mM 2-mercaptoethanol, 25 °C; 2.25 uM dsRNA in cell, 80 uM protein in syringe. The following applies: protein: recombinant; tags: N-terminal His6 (uncleaved); chain copies: 2; blunt.

B1: 13-nt self-complementary RNA (dsRNA)
RNA 1: CGAAGCCUUCGCG
RNA 2: CGAAGCCUUCGCG
With B1, the binding result in data set [1] was “binds”.

B2: 24 bp dsRNA duplex (dsRNA)
RNA 1: GGGAUCAAUAUGCUAAGCGAUCCC
RNA 2: GGGAUCGCUUAGCAUAUUGAUCCC
A word on the Kd: it is the free concentration of one partner at which half of the binding sites on the other are occupied at equilibrium, for simple one-to-one binding. On to B2, for which the Kd in data set [2] is 410 ± 65 nM; in data set [3] it was 125 ± 25 nM.
